Data from patent US20140348834A1 (published 2014).
Read-outs that look alike come from different tables or passages of the source.

T1: rat IL-17A (rat, UniProt Q61453 18-150, limits assumed)
T1 sequence (looked up): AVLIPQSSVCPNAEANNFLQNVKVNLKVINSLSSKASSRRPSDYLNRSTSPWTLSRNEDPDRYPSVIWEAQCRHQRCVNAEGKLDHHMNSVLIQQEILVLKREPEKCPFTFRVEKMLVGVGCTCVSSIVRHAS

T2: rat IL-17A (rat, UniProt Q61453 18-150, limits assumed)
T2 construct: Purified recombinant protein in SPR
T2 sequence (looked up): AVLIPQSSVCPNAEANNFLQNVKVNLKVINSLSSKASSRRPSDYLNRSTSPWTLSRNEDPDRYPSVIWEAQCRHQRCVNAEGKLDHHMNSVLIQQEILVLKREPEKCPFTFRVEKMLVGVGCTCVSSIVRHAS

T3: mouse IL-17A (mouse, UniProt Q62386 26-158, limits assumed)
T3 construct: Purified recombinant protein in SPR; also called MuIL-17A; murine IL-17A
T3 sequence (looked up): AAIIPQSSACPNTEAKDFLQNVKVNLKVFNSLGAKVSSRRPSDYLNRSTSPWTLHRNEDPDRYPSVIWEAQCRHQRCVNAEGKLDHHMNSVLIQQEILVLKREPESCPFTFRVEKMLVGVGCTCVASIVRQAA

T4: rat IL-17A (rat, UniProt Q61453 18-150, limits assumed)
T4 sequence (looked up): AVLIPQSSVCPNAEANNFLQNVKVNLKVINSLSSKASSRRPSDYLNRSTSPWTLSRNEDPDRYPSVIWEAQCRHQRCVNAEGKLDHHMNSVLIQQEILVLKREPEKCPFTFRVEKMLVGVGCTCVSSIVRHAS

T5: mouse IL-17A (mouse, UniProt Q62386 26-158, limits assumed)
T5 construct: also called MuIL-17A; murine IL17A HIS
T5 sequence (looked up): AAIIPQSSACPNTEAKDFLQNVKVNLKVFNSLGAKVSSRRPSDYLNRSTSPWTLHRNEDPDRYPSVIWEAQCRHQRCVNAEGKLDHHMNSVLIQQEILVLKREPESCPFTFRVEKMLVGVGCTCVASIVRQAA

B1: IL17-B6-11 (antibody, V domains shown)
VH: EVQLVQSGAEVKKPGSSVKVSCKASGGSFLSYGFSWVRQAPGQGLEWMGGITPFFGFADYAQKFQGRVTITADESTTTAYMELSGLTSDDTAVYYCAREPNDFWNGYYTTHHFDYWGQGTTVTVSS
VL: DVVMTQSPDFQSVTPKEKVTITCRASQNIGSALHWYQQKPDQSPKLLIKYASQSISGVPSRFSGSGSGTDFTLTINGLEAEDAGTYYCHQSTSLPHTFGQGTKLDIKR
B2: ML109-10F7 (antibody, V domains shown)
VH: QVQLQQSGAELVRPGTSVTLSCKASGYIFTDYEIHWVKQTPVHGLEWIGVNDPESGGTFYNQKFDGKAELTADKSSSTAYMELRSLTSEDSGVYYCTRYYRYESFYGMDYWGQGTSITVSS
VL: QIVLTQSPAIMSASPGEKVTMTCSASSSISYIYWFQQKPGTSPKRWIYATFELASGVPARFSGSGSGTSYSLTISSMEAEDAATYYCHQRSSYPWTFGGGSKLEIKR
notes: Hybridoma-derived murine mAb; also called 10F7.3D1
B3: IL17-B6-5 (antibody, V domains shown)
VH: EVQLVQSGAEVKKPGESVKISCKASGGSFRSYGISWVRQAPGQGLEWMGGITHFFGITDYAQKFQGRVTITADESTTTAYMELSGLTSDDTAVYYCAREPNDFWNGYYDTHDFDSWGQGTTVTVSS
VL: EIVLTQSPDFQSVTPKEKVTITCRASQNIGSELHWYQQKPDQSPKLLIKYASHSISGVPSRFSGSGSGTDFTLTINGLEAEDAATYYCHQSDTLPHTFGQGTKVDIK
notes: also called pJP243 B6.1 #5VH / pJP244 B6.1 #5VK
B4: IL17-B6-17 (antibody, V domains shown)
VH: EVQLVQSGAEVKKPGSSVKVSCKASGGSFGGYGIGWVRQAPGQGLEWMGGITPFFGFADYAQKFQGRVTITADESTTTAYMELSGLTSDDTAVYYCARDPNEFWNGYYSTHDFDSWGQGTTVTVSS
VL: EIVLTQSPDFQSVTPKEKVTITCRASQDIGSELHWYQQKPDQPPKLLIKYASHSTSGVPSRFSGSGSGTDFTLTINGLEAEDAGTYYCHQTDSLPYTFGPGTKVDIK

Key:
human IL-17A [1] = target: T6, human IL-17A (human, UniProt Q16552 24-155); test: ELISA, captured antibody, serially diluted biotin-IL-17 (Example 1.5.1)
T6 construct: Biotinylated in the ELISA; also called hIL-17; Hu IL-17A
T6 sequence (Q16552 24-155 limits assumed): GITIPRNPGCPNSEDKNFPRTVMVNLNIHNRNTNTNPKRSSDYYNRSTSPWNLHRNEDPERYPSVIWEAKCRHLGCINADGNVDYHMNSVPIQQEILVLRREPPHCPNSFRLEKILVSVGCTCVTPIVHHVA

[2] = target: cynomolgous monkey (cyno) IL-17A (cynomolgus monkey, UniProt A0A2K5TTB0 24-155); test: cell-based or functional assay
Sequence of cynomolgous monkey (cyno) IL-17A (A0A2K5TTB0 entry or part of it): as the sequence (Q16552 24-155 limits assumed) above, with T3A, P8S, N34S, I77V, N78K, P104R counted along it

human IL-17A/F [3] = target: human IL-17A/F (human, UniProt Q16552 24-155; Q96PD4 31-163); test: cell-based or functional assay
Target sequence in this assay (Q16552 24-155 limits assumed, chain 1 of 2): as the sequence (Q16552 24-155 limits assumed) above
Target sequence in this assay (Q96PD4 31-163 limits assumed, chain 2 of 2): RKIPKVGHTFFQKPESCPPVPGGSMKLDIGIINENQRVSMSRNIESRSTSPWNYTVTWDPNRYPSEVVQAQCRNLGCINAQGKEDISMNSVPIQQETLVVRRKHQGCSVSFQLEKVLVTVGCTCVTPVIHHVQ

rat IL-17A [4] = target: T1, rat IL-17A; test: cell-based or functional assay
human IL-17A [5] = target: T6, human IL-17A; test: cell-based or functional assay
rat IL-17A [6] = target: T2, rat IL-17A; test: SPR (Biacore 3000), antibody captured by anti-Fc, antigen in solution;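 further: rates obtained by global fitting of a one-to-one Langmuir model over a series of antigen concentrations, Kd derived as koff over kon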
Description: (§1) The binding of antibodies to purified recombinant human, cyno, rat, mouse, rabbit IL-17 and human IL-17A/F were determined by surface plasmon resonance-based measurements with a Biacore® 3000 instrument (Biacore® AB, Uppsala, Sweden) using running HBS-EP (10 mM HEPES [pH 7.4], 150 mM NaCl, 3 mM EDTA, and 0.005% surfactant P20) at 25° C. […] Approximately 5000 RU of goat anti-mouse or anti-human IgG (Fcγ) fragment specific polyclonal antibody (Pierce Biotechnology Inc, Rockford, Ill.) diluted in 10 mM sodium acetate (pH 4.5) was directly immobilized across a CM5 research grade biosensor chip using a standard amine coupling kit according to manufacturer's instructions and procedures at 25 μg/ml. Unreacted moieties on the biosensor surface were blocked with ethanolamine. Modified carboxymethyl dextran surface in flowcell 2 and 4 was used as a reaction surface. Unmodified carboxymethyl dextran without goat anti-mouse or anti-human IgG in flow cell 1 and 3 was used as the reference surface. For kinetic analysis, rate equations derived from the 1:1 Langmuir binding model were fitted simultaneously to association and dissociation phases of all eight injections (using global fit analysis) with the use of Biaevaluation 4.0.1 software. Purified antibodies were diluted in HEPES-buffered saline for capture across goat anti-mouse or anti-human IgG specific reaction surfaces. Antibodies to be captured as a ligand (25 μg/ml) were injected over reaction matrices at a flow rate of 5 μl/min. The association and dissociation rate constants, kon (unit M-1s-1) and koff (unit s-1) were determined under a continuous flow rate of 25 μl/min. Rate constants were derived by making kinetic binding measurements at ten different antigen concentrations ranging from 10 nM to 200 nM. The equilibrium dissociation constant (unit M) of the reaction between antibodies and recombinant purified IL-17 antigens was then calculated from the kinetic rate constants by the following formula: KD=koff/kon. Binding was recorded as a function of time and kinetic rate constants are calculated. In this assay, on-rates as fast as 10⁶ M⁻¹ s⁻¹ and off-rates as slow as 10⁻⁶ s⁻¹ can be measured.

human IL-17A/F [7] = target: T7, human IL-17A/F (human, UniProt Q16552 24-155; Q96PD4 31-163); test: as above
T7 construct: Recombinant; biotinylated in the ELISA; also called hIL-17A/F; HuIL-17A/F
T7 sequence (Q16552 24-155, chain 1 of 2): as the sequence (Q16552 24-155 limits assumed) above
T7 sequence (Q96PD4 31-163, chain 2 of 2): as the sequence (Q96PD4 31-163 limits assumed, chain 2 of 2) above
Description: as §1

cynomolgus monkey IL-17A = target: T8, cynomolgus monkey IL-17A (cynomolgus monkey, UniProt A0A2K5TTB0 24-155); test: as above
T8 construct: biotinylated in the ELISA; also called cyno IL-17; Cyno IL-17A
T8 sequence (A0A2K5TTB0 entry or part of it): as the sequence (Q16552 24-155 limits assumed) above, with T3A, P8S, N34S, I77V, N78K, P104R counted along it
Description: as §1

mouse IL-17A [8] = target: T3, mouse IL-17A; test: as above
Description: as §1

human IL-17A [9] = target: T9, human IL-17A (human, UniProt Q16552 24-155); test: as above
T9 construct: Recombinant; biotinylated in the ELISA; also called hIL-17; hIL17A
T9 sequence (Q16552 24-155): as the sequence (Q16552 24-155 limits assumed) above
Description: as §1

human IL-17A [10] = target: T9, human IL-17A; test: cell-based or functional assay; remark: listed apart in the source
human IL-17A/F [11] = target: T10, human IL-17A/F (human, UniProt Q16552 24-155; Q96PD4 31-163); test: SPR Biacore, captured binder
T10 construct: Heterodimer of IL-17A and IL-17F, purified recombinant; also called HuIL-17A/F; Hu IL-17A/F
T10 sequence (Q16552 24-155 limits assumed, chain 1 of 2): as the sequence (Q16552 24-155 limits assumed) above
T10 sequence (Q96PD4 31-163 limits assumed, chain 2 of 2): as the sequence (Q96PD4 31-163 limits assumed, chain 2 of 2) above
Description: as §1

rat IL-17A [12] = target: T4, rat IL-17A; test: SPR Biacore, captured binder
Description: as §1

rabbit IL-17A = target: T11, rabbit IL-17A (rabbit); test: SPR Biacore, captured binder
T11 construct: also called RabIL-17A
Description: as §1

mouse IL-17A [13] = target: T5, mouse IL-17A; test: SPR Biacore, captured binder
Description: as §1

human IL-17A [14] = target: T12, human IL-17A (human, UniProt Q16552 24-155); test: SPR Biacore, captured binder
T12 construct: Purified recombinant; biotinylated in the ELISA; also called HuIL-17A; Hu IL-17A
T12 sequence (Q16552 24-155 limits assumed): as the sequence (Q16552 24-155 limits assumed) above
Description: as §1

cyno IL-17A = cyno IL-17A (cynomolgus monkey, UniProt A0A2K5TTB0 24-155); test: SPR Biacore, captured binder
Sequence of cyno IL-17A (A0A2K5TTB0 entry or part of it): as the sequence (Q16552 24-155 limits assumed) above, with T3A, P8S, N34S, I77V, N78K, P104R counted along it
Description: as §1

Binder	Kd (human IL-17A/F [11]) [pM]	koff (human IL-17A/F [11]) [s⁻¹]	kon (human IL-17A/F [11]) [M⁻¹ s⁻¹]	Kd (rat IL-17A [12]) [pM]	koff (rat IL-17A [12]) [s⁻¹]	kon (rat IL-17A [12]) [M⁻¹ s⁻¹]	Kd (rabbit IL-17A) [pM]	koff (rabbit IL-17A) [s⁻¹]	kon (rabbit IL-17A) [M⁻¹ s⁻¹]	Kd (mouse IL-17A [13]) [pM]	koff (mouse IL-17A [13]) [s⁻¹]	kon (mouse IL-17A [13]) [M⁻¹ s⁻¹]	Kd (human IL-17A [14]) [pM]	koff (human IL-17A [14]) [s⁻¹]	kon (human IL-17A [14]) [M⁻¹ s⁻¹]	Kd (cyno IL-17A) [pM]	koff (cyno IL-17A) [s⁻¹]	kon (cyno IL-17A) [M⁻¹ s⁻¹]	also measured
B1																			EC50 (human IL-17A [1]): 58 pM; Potency (pM), IL-17-driven IL-6 production in HS27 cells [2]: 33 pM; Potency (pM), IL-17-driven IL-6 production in HS27 cells (human IL-17A/F [3]): 71 pM; Potency (pM), IL-17 and TNF-induced IL-6 secretion from NIH3T3 cells (rat IL-17A [4]): 6100 pM; Potency (pM), IL-17-driven IL-6 production in HS27 cells (human IL-17A [5]): 20 pM
B2																			Kd (rat IL-17A [6]): 197 pM; koff (rat IL-17A [6]): 0.000623 s⁻¹; kon (rat IL-17A [6]): 3.17e+06 M⁻¹ s⁻¹; Kd (human IL-17A/F [7]): 673 pM; koff (human IL-17A/F [7]): 0.000686 s⁻¹; kon (human IL-17A/F [7]): 1.02e+06 M⁻¹ s⁻¹; Kd (cynomolgus monkey IL-17A): 68.4 pM; koff (cynomolgus monkey IL-17A): 0.000145 s⁻¹; kon (cynomolgus monkey IL-17A): 2.12e+06 M⁻¹ s⁻¹; Kd (mouse IL-17A [8]): 221 pM; koff (mouse IL-17A [8]): 0.000354 s⁻¹; kon (mouse IL-17A [8]): 1.6e+06 M⁻¹ s⁻¹; Kd (human IL-17A [9]): 62.6 pM; koff (human IL-17A [9]): 0.000159 s⁻¹; kon (human IL-17A [9]): 2.54e+06 M⁻¹ s⁻¹; Potency (pM), IL-17-driven IL-6 production in HS27 cells (human IL-17A [10]): 54 pM
B3	2.22	2.95e-05	1.33e+07	9.05	5.54e-05	6.12e+06	3.17	2.23e-05	7.03e+06	39.5	0.000102	2.58e+06	3.18	2.29e-05	7.2e+06	5.39	6.52e-05	1.21e+07	
B4	1.7	1.23e-05	7.23e+06	9.64	5.91e-05	6.13e+06	3.51	3.36e-05	9.58e+06	113	0.000169	1.49e+06	0.785	3.1e-06	3.95e+06	1.03	1.05e-05	1.02e+07	
